Data published in paper PMC9273934 (2022).

Columns and labels:
[1] = molecular target: recombinant CD81 large extracellular loop; test: SPR; BiaCore T200, CM5 chip, room temperature; CD81-LEL immobilised at about 150 RU; Fc-E1E2 flowed at 0-250 ug/ml; HBS-EP pH 7.4, 150 mM NaCl; 1:1 steady state binding model
[2] = molecular target: T1, recombinant CD81 large extracellular loop; test: SPR
T1 chain: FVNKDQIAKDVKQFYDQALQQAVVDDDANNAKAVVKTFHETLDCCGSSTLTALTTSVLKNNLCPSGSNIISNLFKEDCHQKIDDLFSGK

Fc-E1E2 from Con1 (GT1b), recombinant full-length E1E2 heterodimer (from UniProt Q9WMX2 192-383; Q9WMX2 384-746) (complex)
Kd [1]: 327 nM

Fc-E1E2 from H77 (GT1a), recombinant full-length E1E2 heterodimer (complex)
Kd [1]: 382 nM

Fc-E1E2 from HK6a (GT6a), recombinant full-length E1E2 heterodimer (complex)
Kd [1]: 775 nM

Fc-E1E2 from J6 (GT2a), recombinant full-length E1E2 heterodimer (complex)
Kd [1]: 243 nM

Fc-E1E2 from S52 (GT3a), recombinant full-length E1E2 heterodimer (complex)
Kd [1]: 71 nM

B1: Fc-E1E2 from Con1 (GT1b), recombinant full-length E1E2 heterodimer (complex)
chain 1: YEVRNVSGVYHVTNDCSNASIVYEAADMIMHTPGCVPCVRENNSSRCWVALTPTLAARNASVPTTTIRRHVDLLVGAAALCSAMYVGDLCGSVFLVAQLFTFSPRRHETVQDCNCSIYPGHVTGHRMAWDMMMNWSPTAALVVSQLLRIPQAVVDMVAGAHWGVLAGLAYYSMVGNWAKVLIVMLLFAGVDG
chain 2: GTYVTGGTMAKNTLGITSLFSPGSSQKIQLVNTNGSWHINRTALNCNDSLNTGFLAALFYVHKFNSSGCPERMASCSPIDAFAQGWGPITYNESHSSDQRPYCWHYAPRPCGIVPAAQVCGPVYCFTPSPVVVGTTDRFGVPTYSWGENETDVLLLNNTRPPQGNWFGCTWMNSTGFTKTCGGPPCNIGGIGNKTLTCPTDCFRKHPEATYTKCGSGPWLTPRCLVHYPYRLWHYPCTVNFTIFKVRMYVGGVEHRLEAACNWTRGERCNLEDRDRSELSPLLLSTTEWQVLPCSFTTLPALSTGLIHLHQNVVDVQYLYGIGSAVVSFAIKWEYVLLLFLLLADARVCACLWMMLLIAQAEA
koff [2]: 0.00277 s⁻¹

B2: Fc-E1E2 from S52 (GT3a), recombinant full-length E1E2 heterodimer (complex)
chain 1: LEWRNTSGLYVLTNDCSNSSIVYEADDVILHTPGCVPCVQDDNTSTCWTPVTPTVAVRYVGATTASIRSHVDLLVGAATLCSALYVGDMCGAVFLVGQAFTFRPRRHQTVQTCNCSLYPGHVSGHRMAWDMMMNWSPAVGMVVAHILRLPQTLFDILAGAHWGILAGLAYYSMQGNWAKVAIVMIMFSGVDA
chain 2: ETYVTGGSVAHSARGLTSLFSMGAKQKLQLVNTNGSWHINSTALNCNESINTGFIAGLFYYHKFNSTGCPQRLSSCKPIISFRQGWGPLTDANITGPSDDRPYCWHYAPRPCSVVPASSVCGPVYCFTPSPVVVGTTDIKGKPTYNWGENETDVFLLESLRPPSGRWFGCAWMNSTGFLKTCGAPPCNIYGGEGDPENETDLFCPTDCFRKHPEATYSRCGAGPWLTPRCMVDYPYRLWHYPCTVNFTLFKVRMFVGGFEHRFTAACNWTRGERCNIEDRDRSEQHPLLHSTTELAILPCSFTPMPALSTGLIHLHQNIVDVQYLYGVGSDMVGWALKWEFVILVFLLLADARVCVALWLMLMVSQAEA
koff [2]: 0.000465 s⁻¹

B3: Fc-E1E2 from J6 (GT2a), recombinant full-length E1E2 heterodimer (complex)
chain 1: AEVKNISTGYMVTNDCTNDSITWQLQAAVLHVPGCVPCEKVGNASQCWIPVSPNVAVQRPGALTQGLRTHIDMVVMSATLCSALYVGDLCGGVMLAAQMFIVSPQHHWFVQDCNCSIYPGTITGHRMAWDMMMNWSPTATMILAYAMRVPEVIIDIISGAHWGVMFGLAYFSMQGAWAKVVVILLLAAGVDA
chain 2: RTHTVGGSAAQTTGRLTSLFDMGPRQKIQLVNTNGSWHINRTALNCNDSLHTGFIASLFYTHSFNSSGCPERMSACRSIEAFRVGWGALQYEDNVTNPEDMRPYCWHYPPRQCGVVSAKTVCGPVYCFTPSPVVVGTTDRLGAPTYTWGENETDVFLLNSTRPPLGSWFGCTWMNSSGYTKTCGAPPCRTRADFNASTDLLCPTDCFRKHPDTTYLKCGSGPWLTPRCLIDYPYRLWHYPCTVNYTIFKIRMYVGGVEHRLTAACNFTRGDRCNLEDRDRSQLSPLLHSTTEWAILPCSYSDLPALSTGLLHLHQNIVDVQFMYGLSPALTKYIVRWEWVILLFLLLADARVCACLWMLILLGQAEA
koff [2]: 0.00104 s⁻¹

B4: Fc-E1E2 from HK6a (GT6a), recombinant full-length E1E2 heterodimer (complex)
chain 1: LTYGNSSGLYHLTNDCPNSSIVLEADAMILHLPGCLPCVRVNNNQSICWHAVSPTLAIPNASTPATGFRRHVDLLAGAAVVCSSLYIGDLCGSLFLAGQLFTFQPRRHWTVQDCNCSIYTGHVTGHRMAWDMMMNWSPTTTLVLSSILRVPEICASVISGGHWGILLAVAYFGMAGNWLKVLAVLFLFAGVE
chain 2: ATTTIGHQVGRTTGGLASLFSIGPRQNLQLINTTGSWHINRTALNCNDSLQTGFITSLFYAKNVNSSGCPERMAACKPLADFRQGWGQITYKVNISGPSDDRPYCWHYAPRPCDVVSARTVCGPVYCFTPSPVVVGTTDKLGIPTYNWGENETDVFMLESLRPPTGGWFGCTWMNSTGFTKTCGAPPCQIVPGDYNSSANELLCPTDCFRKHPEATYQRCGSGPWITPRCLVDYPYRLWHYPCTVNFTLHKVRMFVGGIEHRFDAACNWTRGERCDLHDRDRIEMSPLLFSTTQLAILPCSFSTMPALSTGLIHLHQNIVDVQYLYGVSSSVTSWVVKWEYIVLVFLVLADARICTCLWLMLLITNVEA
koff [2]: 0.0022 s⁻¹
